What is called Km is the concentration of substrate that gives half-maximal velocity. One may read the kcat/Km as the turnover number divided by the Michaelis constant.

Experimental findings from paper PMC7115751, “Identification and functional characterization of a β-glucosidase from Bacillus tequelensis BD69 expressed in bacterial and yeast heterologous systems” (PeerJ, 2020) are described below.

Substrate in this data set: O=[N+]([O-])c1ccc(O[C@@H]2O[C@H](CO)[C@@H](O)[C@H](O)[C@H]2O)cc1
Description: purified protein. The format is biochemical, Bacillus tequilensis. As to conditions: pH 5.0 acetate buffer, 50 °C, pNPG 2–20 mM, no metal or NAD cofactor mentioned.

B1: Bteqβgluc (pPIC-Bteqβgluc) (Bacillus tequilensis) (protein)
chain: MTKGLKIVTIGGGSSYTPVLVEGFIKRYDELPVRELWLVDIPEGEEKLNIVGTLAKRMVEKAGVPIDIHLTPDRRKALKDADFVTTQFRVGLLQARAKDERIPLKYGVIGQETNGPGGLFKGLRTIPVILEIAKDIEELCPNAWLVNFTNPAGMVTEALLRYSNLKKVVGLCNVPIGIKMGVAKALDVDVDRVEVQFAGLNHMVFGLDVFLDGVSVKEQVIEAMGDPKNAMTMKNTSGAEWEPDFLKALNVIPCGYHRYYFKTKEMLEHELEASQTEGTRAEVVQKVEKELFELYKDPNLAIKPPQLEKRGGAYYSDAACNLISSIYNDKHDIQPVNTINNGAIASIPDDSAVEVNCVMTKTGPKPIAVGDLPVSVRGLVQQIKSFERVAAEAAVTGDYQTALLAMTTNPLVPSDAVAKQILDDMLEAHKAYLPQFFNKIEA
notes: full-length ORF (1,329 bp; 443 residues) in pPIC9K, secreted from Pichia pastoris GS115, purified by anion exchange; no His tag mentioned
With B1, the Km came to 7.43 mM and the catalytic efficiency (kcat/Km) is 1020 M⁻¹ s⁻¹.

B2: Bteqβgluc (pET-Bteqβgluc) (Bacillus tequilensis) (protein)
chain: MTKGLKIVTIGGGSSYTPVLVEGFIKRYDELPVRELWLVDIPEGEEKLNIVGTLAKRMVEKAGVPIDIHLTPDRRKALKDADFVTTQFRVGLLQARAKDERIPLKYGVIGQETNGPGGLFKGLRTIPVILEIAKDIEELCPNAWLVNFTNPAGMVTEALLRYSNLKKVVGLCNVPIGIKMGVAKALDVDVDRVEVQFAGLNHMVFGLDVFLDGVSVKEQVIEAMGDPKNAMTMKNTSGAEWEPDFLKALNVIPCGYHRYYFKTKEMLEHELEASQTEGTRAEVVQKVEKELFELYKDPNLAIKPPQLEKRGGAYYSDAACNLISSIYNDKHDIQPVNTINNGAIASIPDDSAVEVNCVMTKTGPKPIAVGDLPVSVRGLVQQIKSFERVAAEAAVTGDYQTALLAMTTNPLVPSDAVAKQILDDMLEAHKAYLPQFFNKIEA
notes: full-length ORF (1,329 bp; 443 residues) in pET-30a(+), His-tagged, E. coli BL21(DE3) pLysS
Turning to B2, the Michaelis constant (Km) is on record as 8.43 mM and the catalytic efficiency (kcat/Km) was 887 M⁻¹ s⁻¹.
